Target: T1, LigB9-11 (Leptospira interrogans serovar …)
T1 construct: pET-20b(+) adds an initiating methionine and a C-terminal LEH6 tail; not shown: His6 (LEH6 tail), C-terminal, kept
Assay: ELISA; host protein (1 µg per well) immobilised in microtiter wells, blocked with 20 mg/mL BSA; recombinant LigB in 20 mg/mL BSA in PBS pH 7.2, 1 h at 37°C; bound LigB detected by its polyhistidine tag; apparent Kd from the LigB concentration at half-maximal binding
Conditions: both partners purified

B1: fibrinogen fragment D (complex)
chain 1: VSEDLRSRIEVLKRKVIEKVQHIQLLQKNVRAQLVDMKRLEVDIDIKIRSCRGSCSRALAREVDLKDYEDQQKQLEQVIAKDLLPSR
chain 2: DNENVVNEYSSELEKHQLYIDETVNSNIPTNLRVLRSILENLRSKIQKLESDVSAQMEYCRTPCTVSCNIPVVSGKECEEIIRKGGETSEMYLIQPDSSVKPYRVYCDMNTENGGWTVIQNRQDGSVDFGRKWDPYKQGFGNVATNTDGKNYCGLPGEYWLGNDKISQLTRMGPTELLIEMEDWKGDKVKAHYGGFTVQNEANKYQISVNKYRGTAGNALMDGASQLMGENRTMTIHNGMFFSTYDRDNDGWLTSDPRKQCSKEDGGGWWYNRCHAANPNGRYYWGGQYTWDMAKHGTDDGVVWMNWKGSWYSMRKMSMKIRPFFPQQ
chain 3: KMLEEIMKYEASILTHDSSIRYLQEIYNSNNQKIVNLKEKVAQLEAQCQEPCKDTVQIHDITGKDCQDIANKGAKQSGLYFIKPLKANQQFLVYCEIDGSGNGWTVFQKRLDGSVDFKKNWIQYKEGFGHLSPTGTTEFWLGNEKIHLISTQSAIPYALRVELEDWNGRTSTADYAMFKVGPEADKYRLTYAYFAGGDAGDAFDGFDFGDDPSDKFFTSHNGMQFSTWDNDNDKFEGNCAEQDGSGWWMNKCHAGHLNGVYYQGGTYSKASTPNGYDNGIIWATWKTRWYSMKKTTMKIIPFNRLTIGEGQQHHLGGAK
  Kd: 0.026 µM

From PMC3036719, “The Multifunctional LigB Adhesin Binds Homeostatic Proteins with Potential Roles in Cutaneous Infection by Pathogenic Leptospira interrogans” (PLoS ONE, 2011)
